For one assay, the target named is human LGR7 (human) (UniProt Q9HBX9). As to the kind of experiment: cell-based or functional assay.
For another assay, the target named is human LGR8 (human) (UniProt Q8WXD0). As to the kind of experiment: cell-based or functional assay.
For a further assay, the target named is rat GPCR135 (rat) (UniProt Q5Y987). As to the kind of experiment: competition with 100 pM [125I] human R3, COS-7 membranes with rat GPCR135.
In another assay the target is rat LGR7 (rat) (UniProt Q6R6I6). Kind of assay: competition with 100 pM [125I] human relaxin-2, COS-7 membranes with rat LGR7.

Bounds are passed on as bounds.

Broadly, the IC50 is the point on the concentration scale where inhibition reaches its midpoint.

rat GPCR135 (rat), sequence (Q5Y987 entry or part of it): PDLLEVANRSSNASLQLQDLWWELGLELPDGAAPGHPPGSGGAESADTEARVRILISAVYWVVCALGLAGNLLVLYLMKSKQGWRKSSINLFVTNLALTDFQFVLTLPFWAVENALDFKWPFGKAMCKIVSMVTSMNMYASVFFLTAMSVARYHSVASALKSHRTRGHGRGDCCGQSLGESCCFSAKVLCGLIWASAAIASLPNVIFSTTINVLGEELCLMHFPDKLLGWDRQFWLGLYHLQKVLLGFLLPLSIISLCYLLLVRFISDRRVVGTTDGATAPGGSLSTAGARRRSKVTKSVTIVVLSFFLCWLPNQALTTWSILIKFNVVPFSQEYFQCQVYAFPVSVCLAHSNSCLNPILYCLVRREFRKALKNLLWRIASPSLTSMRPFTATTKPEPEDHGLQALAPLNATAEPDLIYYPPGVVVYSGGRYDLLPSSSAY
human LGR7 (human), sequence (Q9HBX9 whole entry): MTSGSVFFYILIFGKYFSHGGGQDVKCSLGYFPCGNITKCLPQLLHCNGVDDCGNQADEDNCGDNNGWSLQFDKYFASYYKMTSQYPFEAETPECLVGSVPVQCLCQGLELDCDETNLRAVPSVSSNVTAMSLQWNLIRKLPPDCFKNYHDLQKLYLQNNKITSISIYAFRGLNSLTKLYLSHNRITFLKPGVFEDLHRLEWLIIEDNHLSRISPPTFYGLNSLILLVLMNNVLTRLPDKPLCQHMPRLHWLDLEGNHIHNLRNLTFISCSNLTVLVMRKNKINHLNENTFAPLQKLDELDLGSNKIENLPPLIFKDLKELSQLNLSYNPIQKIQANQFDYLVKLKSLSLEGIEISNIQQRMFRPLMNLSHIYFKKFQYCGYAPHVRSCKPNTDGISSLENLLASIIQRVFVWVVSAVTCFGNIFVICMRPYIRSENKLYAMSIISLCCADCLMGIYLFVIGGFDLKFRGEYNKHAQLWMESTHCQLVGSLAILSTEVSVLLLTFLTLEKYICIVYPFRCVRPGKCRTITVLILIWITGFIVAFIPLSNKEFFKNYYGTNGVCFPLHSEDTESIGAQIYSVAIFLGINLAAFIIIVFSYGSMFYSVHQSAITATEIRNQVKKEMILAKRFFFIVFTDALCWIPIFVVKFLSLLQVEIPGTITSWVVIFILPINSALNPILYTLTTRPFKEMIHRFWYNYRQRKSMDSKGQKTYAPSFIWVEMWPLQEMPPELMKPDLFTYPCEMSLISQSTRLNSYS
human LGR8 (human), sequence (Q8WXD0 whole entry): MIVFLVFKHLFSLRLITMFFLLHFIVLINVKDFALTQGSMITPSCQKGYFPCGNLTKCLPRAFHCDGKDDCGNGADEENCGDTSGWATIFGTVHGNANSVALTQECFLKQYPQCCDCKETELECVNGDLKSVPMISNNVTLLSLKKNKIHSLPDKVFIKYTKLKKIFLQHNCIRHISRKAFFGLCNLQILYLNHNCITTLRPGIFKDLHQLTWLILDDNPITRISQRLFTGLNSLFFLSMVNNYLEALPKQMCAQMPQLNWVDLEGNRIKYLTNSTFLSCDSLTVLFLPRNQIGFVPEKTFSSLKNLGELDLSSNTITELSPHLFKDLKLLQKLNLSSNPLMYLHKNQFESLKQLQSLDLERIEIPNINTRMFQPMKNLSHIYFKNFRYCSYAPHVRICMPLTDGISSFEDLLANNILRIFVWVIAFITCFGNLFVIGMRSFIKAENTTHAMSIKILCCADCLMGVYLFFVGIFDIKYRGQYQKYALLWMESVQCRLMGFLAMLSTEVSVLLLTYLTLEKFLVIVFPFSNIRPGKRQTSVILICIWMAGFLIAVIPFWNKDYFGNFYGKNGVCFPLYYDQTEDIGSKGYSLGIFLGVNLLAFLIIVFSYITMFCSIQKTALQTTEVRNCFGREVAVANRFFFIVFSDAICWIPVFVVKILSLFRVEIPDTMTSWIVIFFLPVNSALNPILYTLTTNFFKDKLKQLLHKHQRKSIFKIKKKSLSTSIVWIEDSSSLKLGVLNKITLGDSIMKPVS
rat LGR7 (rat), sequence (Q6R6I6 whole entry): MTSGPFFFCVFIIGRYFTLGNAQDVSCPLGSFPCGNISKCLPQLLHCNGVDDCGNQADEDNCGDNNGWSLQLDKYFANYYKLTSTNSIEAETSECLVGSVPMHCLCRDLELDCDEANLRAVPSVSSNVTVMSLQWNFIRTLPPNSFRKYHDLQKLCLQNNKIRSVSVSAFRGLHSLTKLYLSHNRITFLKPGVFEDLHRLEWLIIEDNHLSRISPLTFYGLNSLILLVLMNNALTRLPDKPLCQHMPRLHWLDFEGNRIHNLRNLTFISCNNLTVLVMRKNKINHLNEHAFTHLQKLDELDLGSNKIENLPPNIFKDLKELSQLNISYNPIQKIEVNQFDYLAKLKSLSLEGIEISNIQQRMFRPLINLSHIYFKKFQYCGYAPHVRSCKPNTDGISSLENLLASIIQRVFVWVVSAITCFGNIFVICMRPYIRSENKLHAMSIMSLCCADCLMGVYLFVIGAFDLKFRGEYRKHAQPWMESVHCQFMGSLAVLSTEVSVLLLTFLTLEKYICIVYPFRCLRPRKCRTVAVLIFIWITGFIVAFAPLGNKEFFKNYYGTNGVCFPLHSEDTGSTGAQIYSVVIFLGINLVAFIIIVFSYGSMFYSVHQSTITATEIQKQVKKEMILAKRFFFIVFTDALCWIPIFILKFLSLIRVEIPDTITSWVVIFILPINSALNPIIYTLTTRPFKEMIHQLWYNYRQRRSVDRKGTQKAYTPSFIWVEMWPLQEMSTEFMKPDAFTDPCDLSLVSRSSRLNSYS

As to “porcine relaxin (from UniProt P01348 25-56; P01348 161-182) (ligand)”, the stimulation of β-galactosidase activity in SK-N-MC/β-gal cells, EC50 with human LGR7 (human) is 0.25 nM. The induction of β-galactosidase activity in SK-N-MC/β-gal cells, EC50 with human LGR8 (human) came out at 1.5 nM.

Consider “human relaxin (R1) (from UniProt P04808 26-53; P04808 162-185) (ligand)”, for which the IC50 is greater than 1000 nM with rat GPCR135 (rat) and 0.2 nM with rat LGR7 (rat).

The record behind these values is patent publication EP1789452B1, “RELAXIN-CHIMERIC POLYPEPTIDES AND THEIR PREPARATION AND USE” (Janssen Pharmaceutica NV, priority 2004, dated 2006).
